Measured values as given in doi:10.1101/2021.06.01.446590 (bioRxiv, 2021).
Each block holds one binder with its values, some of them ahead of it.

Columns and labels:
[1] = target: human parkin, full-length (human, UniProt O60260 1-465); assay: ITC
His6-Smt3-Parkin = His6-Smt3-Parkin (human, UniProt O60260 1-465, RED-tris-NTA dye bound to the His6 tag); assay: MST
Chain of His6-Smt3-Parkin (O60260 whole entry): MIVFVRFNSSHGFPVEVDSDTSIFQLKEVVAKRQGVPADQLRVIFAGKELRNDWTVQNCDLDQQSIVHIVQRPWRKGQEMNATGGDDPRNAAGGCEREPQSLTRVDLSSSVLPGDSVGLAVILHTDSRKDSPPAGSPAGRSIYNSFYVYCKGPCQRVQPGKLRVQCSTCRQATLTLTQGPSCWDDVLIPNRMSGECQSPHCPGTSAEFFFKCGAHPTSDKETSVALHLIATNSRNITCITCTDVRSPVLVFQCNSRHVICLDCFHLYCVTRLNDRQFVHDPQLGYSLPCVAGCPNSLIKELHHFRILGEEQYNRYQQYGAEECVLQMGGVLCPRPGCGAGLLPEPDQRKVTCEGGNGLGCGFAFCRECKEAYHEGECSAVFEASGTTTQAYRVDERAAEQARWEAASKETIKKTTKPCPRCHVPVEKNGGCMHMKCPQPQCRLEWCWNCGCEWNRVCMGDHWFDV

Chain of human parkin, full-length (O60260 whole entry): as above

Kd [1]: > 100 µM
B1: human CISD1 (residues 32-108) (domain or fragment, UniProt Q9NZ45 32-108, looked up)
chain: KRFYVKDHRNKAMINLHIQKDNPKIVHAFDMEDLGDKAVYCRCWRSKKFPFCDGAHTKHNEETGDNVGPLIIKKKET

Kd (His6-Smt3-Parkin): > 100 µM
B2: Miro1^181-579 (soluble construct of Miro1 containing the EF1-EF2-G2 domains) (domain or fragment, human, UniProt Q8IXI2 181-579, looked up)
chain: MKPACIKALTRIFKISDQDNDGTLNDAELNFFQRICFNTPLAPQALEDVKNVVRKHISDGVADSGLTLKGFLFLHTLFIQRGRHETTWTVLRRFGYDDDLDLTPEYLFPLLKIPPDCTTELNHHAYLFLQSTFDKHDLDRDCALSPDELKDLFKVFPYIPWGPDVNNTVCTNERGWITYQGFLSQWTLTTYLDVQRCLEYLGYLGYSILTEQESQASAVTVTRDKKIDLQKKQTQRNVFRCNVIGVKNCGKSGVLQALLGRNLMRQKKIREDHKSYYAINTVYVYGQEKYLLLHDISESEFLTEAEIICDVVCLVYDVSNPKSFEYCARIFKQHFMDSRIPCLIVAAKSDLHEVKQEYSISPTDFCRKHKMPPPQAFTCNTADAPSKDIFVKLTTMAMY
